# Measured values as given in article PMC3751554.
# Legend:
# [1] = target: TRIMCypA from Macaca mulatta (Macaca mulatta)
# [2] = target: TRIMCypA from Macaca fascicularis (Macaca fascicularis)
# [3] = target: owl monkey TRIMCypA fusion protein (owl monkey (Aotus sp.))
Substance,restriction of infection: ratio of infection titers on CHO cells stably expressing mamu-TRIMCypA over control CHO cells (infectivity ratio) [1],restriction of infection: ratio of infection titers on CHO cells stably expressing mafa-TRIMCypA over control CHO cells (infectivity ratio) [2],restriction of infection: ratio of infected cells in CHO cells stably expressing owl-TRIMCypA over control CHO cells (infectivity ratio) [3]
HIV-2ROD capsid (CA) (natural protein),< 0.2,–,–
SIVgsn capsid (CA) (natural protein),–,< 0.4,–
SIVmnd1 capsid (CA) (natural protein),–,< 0.4,< 0.4
